US20070020743A1, “Undecaprenyl pyrophosphate synthase (upps)enzyme and methods of use” (priority 2001, published 2007)

Key:
[1] = test system: C=C(C)CCO[P@@](=O)(O)OP(=O)(O)O; assay: purified protein, by the assay type; details: other: substrate Km of S. pneumoniae UPPS; pH optimum 7.5-8.0; pH 7.5; 25.0 °C
[2] = test system: CC(C)=CCC/C(C)=C/CC/C(C)=C/CO[P@@](=O)(O)OP(=O)(O)O; assay: purified protein, by the assay type; details: other: substrate Km of S. pneumoniae UPPS; pH optimum 7.5-8.0; pH 7.5; 25.0 °C
Description: The reaction was incubated at 25° C. for 25 min and stopped by addition of EDTA to 50 mM. The reaction was extracted with equal volume of 1-butanol and the radioactivity in the butanol phase was measured with a liquid scintillation counter (Shimizu, N., T. Koyama, and K. Ogura. (1998) J. Biol. Chem. 273:19476-19481).

S. pneumoniae UPPS (Streptococcus pneumoniae TIGR4)
Km [1]: 3.6 µM
Km [2]: 0.5 µM
